Ends that are not written are not given here. * marks the point of attachment. Biotin = O=C1N[C@H]2[C@H](CS[C@H]2CCCCC(=O)*)N1
T1: biotinylated OprF1 synthetic peptide (P. aeruginosa)
T1 construct: also called OprF1-B; OprF1-Biotin
T1 peptide: Biotin-GTYETGNKKVH

B1: OBP11 peptide-quantum dot conjugate (peptide)
peptide: PIKTNRK
modifications: also: conjugated to quantum dot
notes: The summary and claims describe a C-terminal three-glycine plus cysteine linker to an amine-functionalized quantum dot; also called QD545-OBP11; OBP11-QD545
B2: monoclonal M13 phage displaying OBP11 (PIKTNRK) (peptide)
chain: PIKTNRK
notes: also called OprF-specific bacteriophage; not shown: P3 coat protein of M13 bacteriophage (Ph.D.-7 library)
B3: monoclonal M13 phage displaying OBP6 (NMTNPPP) (peptide)
chain: NMTNPPP
notes: as for B2
B4: monoclonal M13 phage displaying OBP12 (PKRTPRH) (peptide)
chain: PKRTPRH
notes: as for B2
B5: monoclonal M13 phage displaying OBP7 (QITLRST) (peptide)
chain: QITLRST
notes: as for B2
B6: monoclonal M13 phage displaying OBP4 (RRSNSQL) (peptide)
chain: RRSNSQL
notes: as for B2
B7: monoclonal M13 phage displaying OBP9 (QMLLRLP) (peptide)
chain: QMLLRLP
notes: as for B2
B8: OBP12 peptide-quantum dot conjugate (peptide)
peptide: PKRTPRH
modifications: also: conjugated to quantum dot
notes: The summary and claims describe a C-terminal three-glycine plus cysteine linker to an amine-functionalized quantum dot; also called QD545-OBP12; OBP12-QD545

Key:
[1] = target: T2, OprF outer membrane protein on P. stutzeri cells (P. stutzeri); assay: fluorometry of cells recovered from spiked 1 L Jet A fuel and labeled with 1.5 uM peptide-QD545, at the LOD of 5 x 10^5 CFU
T2 construct: whole, on cells; whole bacterial cells were labeled

[2] = target: T3, OprF outer membrane protein on A. venetianus cells (A. venetianus); assay: as above
T3 construct: whole, on cells; Whole bacterial cells were labeled

[3] = target: T1, biotinylated OprF1 synthetic peptide; assay: pooled monoclonal phages pulled down on biotinylated OprF1 in Bushnell-Haas with 1% Jet-A; unamplified eluate, share of 30 sequenced clones

Binder	FLUORESCENCE (RFU) [1] [RFU]	FLUORESCENCE (RFU) [2] [RFU]	% Abundance [3] [%]
B1	255	292	–
B2	–	–	10
B3	–	–	10
B4	–	–	3
B5	–	–	10
B6	–	–	33
B7	–	–	3
B8	12200	580	–
